Data published in patent US20200317768A1 (published 2020).

Legend:
Assay in all cases: SPR (Biacore); KD of SG1 divided by KD of the variant for this FcgR;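 further: relative to parent M103205H795-SG1 carrying the SG1 human heavy chain constant region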
[1] = biological target: T1, human FcγRIIIaV extracellular domain with C-terminal His-tag (human, UniProt P08637 17-208)
T1 construct: Expressed in FreeStyle 293 cells and purified; also called FcgRIIIaV; not shown: C-terminal His-tag

[2] = biological target: T2, human FcγRIIb extracellular domain with C-terminal His-tag (human, UniProt P31994 43-217)
T2 construct: Expressed in FreeStyle 293 cells and purified; also called humanFcgRIIb; not shown: C-terminal His-tag
T2 sequence: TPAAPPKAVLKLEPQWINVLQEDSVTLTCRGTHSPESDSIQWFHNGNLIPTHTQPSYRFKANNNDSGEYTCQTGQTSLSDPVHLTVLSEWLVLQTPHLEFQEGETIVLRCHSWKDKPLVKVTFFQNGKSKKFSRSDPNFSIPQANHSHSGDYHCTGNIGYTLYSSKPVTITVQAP

[3] = biological target: T3, cynomolgus monkey FcγRIIa2 extracellular domain with C-terminal His-tag (cynomolgus monkey)
T3 construct: Expressed in FreeStyle 293 cells and purified; also called cyno FcγRIIa2; cynoFcgRIIa2; not shown: C-terminal His-tag
T3 chain: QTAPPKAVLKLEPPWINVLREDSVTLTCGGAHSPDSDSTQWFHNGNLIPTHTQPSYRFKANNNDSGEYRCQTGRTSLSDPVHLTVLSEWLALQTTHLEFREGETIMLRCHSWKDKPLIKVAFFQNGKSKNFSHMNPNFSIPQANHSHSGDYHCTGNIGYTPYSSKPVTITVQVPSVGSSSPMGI

[4] = biological target: T4, cynomolgus monkey FcγRIIIaS extracellular domain with C-terminal His-tag (cynomolgus monkey, UniProt Q8SPW2 21-206 at identity 1.00))
T4 construct: Expressed in FreeStyle 293 cells and purified; also called cyno FcγRIIIaS; cynoFcγRIIIaS; not shown: C-terminal His-tag
T4 chain: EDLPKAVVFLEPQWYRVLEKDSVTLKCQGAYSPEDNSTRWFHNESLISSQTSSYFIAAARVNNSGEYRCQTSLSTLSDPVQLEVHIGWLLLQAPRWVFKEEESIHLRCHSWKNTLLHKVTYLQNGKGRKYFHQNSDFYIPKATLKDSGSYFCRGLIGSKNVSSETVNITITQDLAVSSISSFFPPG

[5] = biological target: T5, cynomolgus monkey FcγRIIb extracellular domain with C-terminal His-tag (cynomolgus monkey)
T5 construct: Expressed in FreeStyle 293 cells and purified; also called cyno FcγRIIb; cynoFcγRIIb; not shown: C-terminal His-tag
T5 chain: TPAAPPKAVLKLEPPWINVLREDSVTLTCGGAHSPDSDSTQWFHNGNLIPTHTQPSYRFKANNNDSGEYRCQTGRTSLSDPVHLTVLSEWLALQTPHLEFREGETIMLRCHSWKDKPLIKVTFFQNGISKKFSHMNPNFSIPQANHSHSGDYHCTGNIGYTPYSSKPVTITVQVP

[6] = biological target: T6, human FcγRIIaR extracellular domain with C-terminal His-tag (human, UniProt P12318 34-217)
T6 construct: Expressed in FreeStyle 293 cells and purified; also called human FcγRIIa (type R); FcgRIIaR; not shown: C-terminal His-tag
T6 chain: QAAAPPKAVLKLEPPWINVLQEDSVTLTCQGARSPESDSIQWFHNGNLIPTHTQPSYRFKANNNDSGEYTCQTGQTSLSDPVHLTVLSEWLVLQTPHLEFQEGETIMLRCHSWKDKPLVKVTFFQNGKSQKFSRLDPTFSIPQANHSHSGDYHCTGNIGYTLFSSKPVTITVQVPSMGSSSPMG

[7] = biological target: T7, cynomolgus monkey FcγRIIa1 extracellular domain with C-terminal His-tag (cynomolgus monkey)
T7 construct: Expressed in FreeStyle 293 cells and purified; also called cyno FcγRIIa1; cynoFcgRIIa1; not shown: C-terminal His-tag
T7 chain: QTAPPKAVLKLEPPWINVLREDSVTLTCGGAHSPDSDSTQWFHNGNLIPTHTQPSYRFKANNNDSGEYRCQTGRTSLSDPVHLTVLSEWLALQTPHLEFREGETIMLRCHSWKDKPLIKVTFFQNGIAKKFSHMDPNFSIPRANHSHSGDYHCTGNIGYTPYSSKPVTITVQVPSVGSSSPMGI

[8] = biological target: T8, human FcγRIIaH extracellular domain with C-terminal His-tag (human, UniProt P12318 34-217)
T8 construct: Expressed in FreeStyle 293 cells and purified; also called human FcγRIIa (type H); FcgRIIaH; not shown: C-terminal His-tag
T8 sequence: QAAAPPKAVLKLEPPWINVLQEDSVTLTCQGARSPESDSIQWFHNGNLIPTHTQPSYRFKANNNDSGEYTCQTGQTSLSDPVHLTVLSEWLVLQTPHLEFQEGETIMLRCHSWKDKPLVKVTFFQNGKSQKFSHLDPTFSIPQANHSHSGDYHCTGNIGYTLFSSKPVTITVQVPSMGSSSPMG

T1 sequence (P08637 17-208 F176V): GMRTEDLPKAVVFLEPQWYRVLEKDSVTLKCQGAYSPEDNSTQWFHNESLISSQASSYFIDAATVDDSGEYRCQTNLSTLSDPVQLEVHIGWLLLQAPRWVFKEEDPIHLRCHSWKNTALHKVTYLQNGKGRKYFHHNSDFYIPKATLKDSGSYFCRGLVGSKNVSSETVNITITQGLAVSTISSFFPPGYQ

B1: M103205H795-MY183 / M103202L889-SK1 (antibody, human IgG1, kappa)
heavy: QVTLKESGPVLVKPTETLTLTCTVSGIDLSHDDISWVRQAPGKGLEWVGIISYAGSTYYASWAKGRLTISKDTSKNQVVLTMTNMDPVDTATYYCARGVPAYSHGGDLWGQGTLVTVSSASTKGPSVFPLAPSSKSTSGGTAALGCLVKDYFPEPVTVSWNSGALTSGVHTFPAVLQSSGLYSLSSVVTVPSSSLGTQTYICNVNHKPSNTKVDKKVEPKSCDKTHTCPPCPAPELLNGPSVFLFPPKPKDTLMISRTPEVTCVVVDVSEEDPEVKFNWYVDGVEVHNAKTKPREEQYNSTYRVVSVLTVLHQDWLNGKEYKCKVSNKALPAPIEKTISKAKGQPREPQVYTLPPSREEMTKNQVSLTCLVKGFYPSDIAVEWESNGQPENNYKTTPWVLDSDGSFFLYSKLTVDKSRWQQGNVFSCSVMHEALHNHYTQKSLSLSP
light: DIVMTQSPATLSLSPGERATLSCTSSQSVYHANWLSWFQQKPGQPPKLLIYWASTLAYGVPSRFSGSGSGTDFTLTISSLQPEDAATYYCAGGYGGGRYAFGQGTKVEIKRTVAAPSVFIFPPSDEQLKSGTASVVCLLNNFYPREAKVQWKVDNALQSGNSQESVTEQDSKDSTYSLSSTLTLSKADYEKHKVYACEVTHQGLSSPVTKSFNRGEC
notes: Position 396 variant derived from MY052, expressed with M103202L889-SK1 as light chain
B1 was tested, and the “KD fold (SG1 = 1)” value [1] was 0.11 fold, the “KD fold (SG1 = 1)” value [2] was 4.2 fold and the “KD fold (SG1 = 1)” value [3] was 2.5 fold. The “KD fold (SG1 = 1)” value [4] was 0.1 fold, the “KD fold (SG1 = 1)” value [5] was 1.9 fold and the “KD fold (SG1 = 1)” value [6] was 0.5 fold. The “KD fold (SG1 = 1)” value [7] was 1.5 fold and the “KD fold (SG1 = 1)” value [8] was 0.6 fold.

B2: M103205H795-MY184 / M103202L889-SK1 (antibody, human IgG1, kappa)
heavy: QVTLKESGPVLVKPTETLTLTCTVSGIDLSHDDISWVRQAPGKGLEWVGIISYAGSTYYASWAKGRLTISKDTSKNQVVLTMTNMDPVDTATYYCARGVPAYSHGGDLWGQGTLVTVSSASTKGPSVFPLAPSSKSTSGGTAALGCLVKDYFPEPVTVSWNSGALTSGVHTFPAVLQSSGLYSLSSVVTVPSSSLGTQTYICNVNHKPSNTKVDKKVEPKSCDKTHTCPPCPAPELLNGPSVFLFPPKPKDTLMISRTPEVTCVVVDVSEEDPEVKFNWYVDGVEVHNAKTKPREEQYNSTYRVVSVLTVLHQDWLNGKEYKCKVSNKALPAPIEKTISKAKGQPREPQVYTLPPSREEMTKNQVSLTCLVKGFYPSDIAVEWESNGQPENNYKTTPYVLDSDGSFFLYSKLTVDKSRWQQGNVFSCSVMHEALHNHYTQKSLSLSP
light: DIVMTQSPATLSLSPGERATLSCTSSQSVYHANWLSWFQQKPGQPPKLLIYWASTLAYGVPSRFSGSGSGTDFTLTISSLQPEDAATYYCAGGYGGGRYAFGQGTKVEIKRTVAAPSVFIFPPSDEQLKSGTASVVCLLNNFYPREAKVQWKVDNALQSGNSQESVTEQDSKDSTYSLSSTLTLSKADYEKHKVYACEVTHQGLSSPVTKSFNRGEC
notes: as for B1
For B2, the “KD fold (SG1 = 1)” value [1] was 0.12 fold, the “KD fold (SG1 = 1)” value [2] was 4.2 fold and the “KD fold (SG1 = 1)” value [3] was 2.6 fold. The “KD fold (SG1 = 1)” value [4] was 0.11 fold, the “KD fold (SG1 = 1)” value [5] was 2 fold and the “KD fold (SG1 = 1)” value [6] was 0.6 fold. For the same binder, the “KD fold (SG1 = 1)” value [7] was 1.7 fold and the “KD fold (SG1 = 1)” value [8] was 0.6 fold.
